This is an account of results in the supplement of paper PMC5998384.

Data set [1] relates to HeLa Kyoto. Briefly: solubility change mitosis vs G1/S (difference of NP-40 vs SDS log2 ratios) (log2 ratio difference); higher = more soluble in mitosis.
For data set [2], the system named is HeLa Kyoto. Briefly: solubility in G1/S (NP-40 vs SDS abundance) (log2 ratio); higher = more soluble. The note with it: cell cycle stage: G1/S.
The subject of data set [3] is HeLa Kyoto. Briefly: melting temperature (median over replicates), in situ; higher = more thermally stable.
Data set [4] concerns HeLa Kyoto. Briefly: thermal stability score vs G1/S (z-score of summed log2 fold changes over temperatures); higher = more thermally stable than in G1/S.
Where [5] appears, read: cell cycle stage: early G1 (4.5 h after nocodazole release).
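Wherever melting temperature (median over replicates), in situ is given: HeLa Kyoto cells synchronized by double thymidine or nocodazole block, proteins quantified by TMT10plex mass spectrometry, three independent biological replicates.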
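Wherever solubility change mitosis vs G1/S (difference of NP-40 vs SDS log2 ratios) is given: synchronized HeLa Kyoto cells (double thymidine block for G1/S, nocodazole release for mitosis), protein amounts in NP-40 versus SDS lysates quantified by mass spectrometry, three biological replicates.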
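Wherever solubility in G1/S (NP-40 vs SDS abundance) is given: HeLa Kyoto cells arrested at G1/S by double thymidine block, proteins quantified by TMT10plex mass spectrometry in mild NP-40 versus SDS extracts, three biological replicates.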
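Wherever thermal stability score vs G1/S (z-score of summed log2 fold changes over temperatures) is given: synchronized HeLa Kyoto cells, proteins quantified by TMT10plex mass spectrometry, three biological replicates, mitosis taken 0.5 h after nocodazole release, G1/S directly after double thymidine block.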

Turning to “MAQYKGAASEAGRAMHLMKKREKQREQMEQMKQRIAEENIMKSNIDKKFSAHYDAVEAELKSSTVGLVTLNDMKAKQEALVKEREKQLAKKEQSKELQMKLEKLREKERKKEAKRKISSLSFTLEEEEEGGEEEEEAAMYEEEMEREEITTKKRKLGKNPDVDTSFLPDRDREEEENRLREELRQEWEAKQEKIKSEEIEITFSYWDGSGHRRTVKMRKGNTMQQFLQKALEILRKDFSELRSAGVEQLMYIKEDLIIPHHHSFYDFIVTKARGKSGPLFNFDVHDDVRLLSDATVEKDESHAGKVVLRSWYEKNKHIFPASRWEPYDPEKKWDKYTIR [FAM50A]”, the “solubility change mitosis (log2)” value in the data set with HeLa Kyoto [1] was -0.0697. Further, the “solubility in G1/S (log2)” value in the data set on HeLa Kyoto [2] stood at 0.0519. The melting temperature in the data set with HeLa Kyoto [3] (cell cycle stage: G1/S) was determined as 48.4 °C; with HeLa Kyoto [3] (cell cycle stage: mitosis), 50.3 °C. The thermal stability score with HeLa Kyoto [4] (setting [5]) amounted to 1.03; with HeLa Kyoto [4] (cell cycle stage: mitosis) it was 2.04.

With “MARCERLRGAALRDVLGRAQGVLFDCDGVLWNGERAVPGAPELLERLARAGKAALFVSNNSRRARPELALRFARLGFGGLRAEQLFSSALCAARLLRQRLPGPPDAPGAVFVLGGEGLRAELRAAGLRLAGDPSAGDGAAPRVRAVLVGYDEHFSFAKLREACAHLRDPECLLVATDRDPWHPLSDGSRTPGTGSLAAAVETASGRQALVVGKPSPYMFECITENFSIDPARTLMVGDRLETDILFGHRCGMTTVLTLTGVSRLEEAQAYLAAGQHDLVPHYYVESIADLTEGLED [PDXP]”, the “solubility change mitosis (log2)” value in the data set with HeLa Kyoto [1] was -0.126. Further, the “solubility in G1/S (log2)” value in the data set with HeLa Kyoto [2] stood at 0.126. Moreover, the melting temperature is 56.7 °C with HeLa Kyoto [3] (cell cycle stage: G1/S) and 57.5 °C in the data set on HeLa Kyoto [3] (cell cycle stage: mitosis). Also, the thermal stability score with HeLa Kyoto [4] (setting [5]) was -2.14; in the data set on HeLa Kyoto [4] (cell cycle stage: mitosis) it was -1.83.

With “MARGERRRRAVPAEGVRTAERAARGGPGRRDGRGGGPRSTAGGVALAVVVLSLALGMSGRWVLAWYRARRAVTLHSAPPVLPADSSSPAVAPDLFWGTYRPHVYFGMKTRSPKPLLTGLMWAQQGTTPGTPKLRHTCEQGDGVGPYGWEFHDGLSFGRQHIQDGALRLTTEFVKRPGGQHGGDWSWRVTVEPQDSGTSALPLVSLFFYVVTDGKEVLLPEVGAKGQLKFISGHTSELGDFRFTLLPPTSPGDTAPKYGSYNVFWTSNPGLPLLTEMVKSRLNSWFQHRPPGAPPERYLGLPGSLKWEDRGPSGQGQGQFLIQQVTLKIPISIEFVFESGSAQAGGNQALPRLAGSLLTQALESHAEGFRERFEKTFQLKEKGLSSGEQVLGQAALSGLLGGIGYFYGQGLVLPDIGVEGSEQKVDPALFPPVPLFTAVPSRSFFPRGFLWDEGFHQLVVQRWDPSLTREALGHWLGLLNADGWIGREQILGDEARARVPPEFLVQRAVHANPPTLLLPVAHMLEVGDPDDLAFLRKALPRLHAWFSWLHQSQAGPLPLSYRWRGRDPALPTLLNPKTLPSGLDDYPRASHPSVTERHLDLRCWVALGARVLTRLAEHLGEAEVAAELGPLAASLEAAESLDELHWAPELGVFADFGNHTKAVQLKPRPPQGLVRVVGRPQPQLQYVDALGYVSLFPLLLRLLDPTSSRLGPLLDILADSRHLWSPFGLRSLAASSSFYGQRNSEHDPPYWRGAVWLNVNYLALGALHHYGHLEGPHQARAAKLHGELRANVVGNVWRQYQATGFLWEQYSDRDGRGMGCRPFHGWTSLVLLAMAEDY [MOGS]”, the “solubility change mitosis (log2)” value in the data set with HeLa Kyoto [1] is -0.0215. Besides, in the data set with HeLa Kyoto [2], the “solubility in G1/S (log2)” value was -0.0875. In addition, the melting temperature with HeLa Kyoto [3] (cell cycle stage: G1/S) was determined as 52.9 °C; in the data set with HeLa Kyoto [3] (cell cycle stage: mitosis) it was 52.8 °C. Moreover, the thermal stability score with HeLa Kyoto [4] (setting [5]) was found to be 3.25; with HeLa Kyoto [4] (cell cycle stage: mitosis), 3.97.

For the sequence “MARGGRGRRLGLALGLLLALVLAPRVLRAKPTVRKERVVRPDSELGERPPEDNQSFQYDHEAFLGKEDSKTFDQLTPDESKERLGKIVDRIDNDGDGFVTTEELKTWIKRVQKRYIFDNVAKVWKDYDRDKDDKISWEEYKQATYGYYLGNPAEFHDSSDHHTFKKMLPRDERRFKAADLNGDLTATREEFTAFLHPEEFEHMKEIVVLETLEDIDKNGDGFVDQDEYIADMFSHEENGPEPDWVLSEREQFNEFRDLNKDGKLDKDEIRHWILPQDYDHAQAEARHLVYESDKNKDEKLTKEEILENWNMFVGSQATNYGEDLTKNHDEL [RCN1]”, in the data set on HeLa Kyoto [1], the “solubility change mitosis (log2)” value was 0.0254. Further, the “solubility in G1/S (log2)” value with HeLa Kyoto [2] was 0.419. Besides, the melting temperature in the data set with HeLa Kyoto [3] (cell cycle stage: G1/S) is 55 °C; with HeLa Kyoto [3] (cell cycle stage: mitosis), 56.4 °C. The thermal stability score with HeLa Kyoto [4] (setting [5]) was found to be 1.52; in the data set with HeLa Kyoto [4] (cell cycle stage: mitosis), 1.33.

In the case of “MARLWGALSLWPLWAAVPWGGAAAVGVRACSSTAAPDGVEGPALRRSYWRHLRRLVLGPPEPPFSHVCQVGDPVLRGVAAPVERAQLGGPELQRLTQRLVQVMRRRRCVGLSAPQLGVPRQVLALELPEALCRECPPRQRALRQMEPFPLRVFVNPSLRVLDSRLVTFPEGCESVAGFLACVPRFQAVQISGLDPNGEQVVWQASGWAARIIQHEMDHLQGCLFIDKMDSRTFTNVYWMKVND [PDF]”, the “solubility change mitosis (log2)” value with HeLa Kyoto [1] is -0.136. The “solubility in G1/S (log2)” value in the data set on HeLa Kyoto [2] turned out to be 0.308. For the same sequence, the melting temperature was determined as 54.8 °C in the data set on HeLa Kyoto [3] (cell cycle stage: G1/S) and 54.9 °C with HeLa Kyoto [3] (cell cycle stage: mitosis). Besides, the results for the thermal stability score with HeLa Kyoto [4] (setting [5]) and with HeLa Kyoto [4] (cell cycle stage: mitosis) were 1.03 and 0.625, respectively.

Regarding “MARNAEKAMTALARFRQAQLEEGKVKERRPFLASECTELPKAEKWRRQIIGEISKKVAQIQNAGLGEFRIRDLNDEINKLLREKGHWEVRIKELGGPDYGKVGPKMLDHEGKEVPGNRGYKYFGAAKDLPGVRELFEKEPLPPPRKTRAELMKAIDFEYYGYLDEDDGVIVPLEQEYEKKLRAELVEKWKAEREARLARGEKEEEEEEEEEINIYAVTEEESDEEGSQEKGGDDSQQKFIAHVPVPSQQEIEEALVRRKKMELLQKYASETLQAQSEEARRLLGY [ISY1]”, the “solubility change mitosis (log2)” value with HeLa Kyoto [1] is 0.254. Moreover, the “solubility in G1/S (log2)” value with HeLa Kyoto [2] turned out to be 0.128. For the same sequence, the melting temperature with HeLa Kyoto [3] (cell cycle stage: G1/S) was found to be 46.7 °C; in the data set with HeLa Kyoto [3] (cell cycle stage: mitosis), 51.2 °C. Moreover, the values for the thermal stability score in the data set on HeLa Kyoto [4] (setting [5]) and with HeLa Kyoto [4] (cell cycle stage: mitosis) were -2.75 and -1.6, respectively.
